Ends that are not written are not given here. Peptide text beside a SMILES is read from it. * marks the point of attachment. 3‑phenylpropyl = c1ccc(CCC*)cc1; Cyclohexylmethyl = C1CCC(C*)CC1; Bn = c1ccc(C*)cc1
Columns and labels:
[1] = 20 μM i.t.; for presence in spinal cord after i.t. injection: naïve mice, 1 h after injection, fluorescence
Method: All spinal cords were isolated by hydraulic extrusion and post‐fixed in PFA 4% for 8 h. Spinal cords were subsequently cryoprotected in 30% sucrose, embedded in Tissue‐Tek® OCT, and sliced at 20 μm thickness by Cryostat Leica CM3050 S.
Epifluorescence microscopy was performed using a Zeiss axioscan.Z1, with a plan‐apochromat 10×/0.45 objective (Carl Zeiss). […] All channels were imaged covering a total of around 6 μm of the 20‐μm‐thick spinal cord slices.

[2] = molecular target: PICK1 (protein interacting with C kinase) (rat) (UniProt Q9EP80); test: fluorescence polarisation; competition; fixed PICK1 and a fluorescent tracer (not named for this series) against increasing unlabeled peptide; 20 min on ice; Ki by Cheng-Prusoff
[3] = molecular target: PICK1 (protein interacting with C kinase 1), purified recombinant rat (rat) (UniProt Q9EP80); test: fluorescence polarisation; competition (Ki with SEM interval); tracer and conditions not stated
[4] = tested on: mechanical allodynia in SNI mice; test: Spared nerve injury (SNI) model, von Frey paw withdrawal threshold; type: in vivo
PICK1 [5] = molecular target: T1, PICK1 (Rattus norvegicus, UniProt Q9EP80); settings: best-known binder of the PICK1 PDZ domain; ref Madsen et al, 2005; cited from earlier work
T1 construct: GST (inferred from pET41 and Glutathione-Sepharose capture) (cleaved yes); made in house; host or cells: Escherichia coli BL21-DE3-pLysS
From the text: To this end, we took advantage of a fluorescence polarization (FP) competition assay using a fluorescent tracer peptide corresponding to the C‐terminal 11 residues of the DAT (OrG‐C11) (Fig EV1A).

Plasma stability = type: in vitro ADME; settings: human plasma (3H biomedical) with 2% DMSO, 50 μM peptide, 37°C, GnHCl/TCA-acetone work-up, C8 RP-HPLC (UPLC), normalized to T = 0, mean, n ≥ 3, read-out: peptide remaining after incubation with human plasma
Method: The peptides were dissolved to a final concentration of 50 μM in human plasma (3H biomedical, Uppsala, Sweden) containing 2% DMSO and incubated at 37°C. Aliquots (45 μl) were added directly to 26 mg guanidine hydrochloride (GnHCl), vortexed, and incubated for 2 min. 90 μl of 10% trichloroacetic acid (TCA) in acetone was then added, and the suspension was incubated at 5°C for 24 h.
The suspension was centrifuged at 18,000 g for 5 min. The supernatants were quantified by analytical C8 RP‐HPLC and normalized to the compound concentration at T = 0. Ligand recovery was > 82%.

[6] = molecular target: OrG-C11, Oregon Green labelled C-terminal 11 residues of the dopamine transporter; test: fluorescence polarisation; saturation; fluorescent peptide fixed at 20 nM, increasing PICK1; 0.01% Triton X-100 (PICK1 a dimer); KD from a log dose-response fit
[7] = molecular target: Org-GluA2 C11, Oregon Green labelled C-terminal 11 residues of GluA2; test: as above
[8] = molecular target: PICK1 (protein interacting with C kinase) (rat) (UniProt Q9EP80); test: fluorescence polarisation
[9] = molecular target: PICK1 (protein interacting with C kinase) (rat) (UniProt Q9EP80); test: fluorescence polarisation; remark: listed apart in the source
[10] = molecular target: PICK1 (protein interacting with C kinase) (rat) (UniProt Q9EP80); test: SEC; analytical SEC of purified PICK1 (40 uM in the titration) alone or incubated with peptide; absorbance at 280 nm and, for the TMR peptide, 544/546 nm
[11] = molecular target: DAT C13 C-terminal 13 residues (Homo sapiens) (UniProt Q01959); settings: cited from earlier work
hippocampal neurons = test: Membrane permeability in dissociated hippocampal neurons (confocal, DiO membrane dye); settings: 21 DIV neurons, 1 h, 37°C, 5 μM TMR-labeled peptide (legend: TMR-C5 20 μM), confocal fluorescence
PICK1 [12] = molecular target: T1, PICK1; test: FP saturation binding; settings: Appendix Fig S2, n = 3
Method: Protein expression was induced with 1 mM IPTG and grown overnight at 20°C. […] 1 l culture at pH 7.4. Suspended pellet was frozen at −80°C. The bacterial suspension was thawed and cleared by centrifugation (F20 rotor, 36,000 × g for 30 min at 4°C). The supernatant was collected and incubated with Glutathione‐Sepharose 4B beads (GE Healthcare) for 2 h at 4°C under gentle rotation. […] Washed beads were transferred to a PD10 gravity column and were washed additionally three times. Bead solution was incubated with thrombin overnight at 4°C under gentle rotation.
The data were plotted using GraphPad Prism 8.3 and fitted to either a sigmoidal dose response for saturation experiments or One site competition for competition experiments. Kis were automatically calculated using the Cheng–Prusoff equation.

Question: Which “presence in spinal cord after i.t. injection” value [1] does the source give for TMR‐Ahx‐YGRKKRRQRRR‐HWLKV [TMR-Tat-C5] here?
Answer: clearly visible in both the ventral and dorsal parts of the spinal cord

Question: For PEG8‐(HWLKV)2 (peptide), which fold increase in affinity over C5 [2] is on record?
Answer: > 10 fold

Question: Which Ki [3] does the source give for DAT C3 peptide, N-acetylated, R = COCH3 here?
Answer: 3.8 µM

Question: With P4‐(C5)2 (peptide) as the molecule, how does the Ki [2] read?
Answer: 0.098 µM

Question: With DAT C3 peptide, no modification as the molecule, how does the Ki [3] read?
Answer: 4.1 µM

Question: With CCOC(=O)NC(=O)/C(C#N)=C/c1ccc(Cl)c(Cl)c1 [FSC231] as the molecule, how does the “effect on PWT / ipsilateral paw hypersensitivity” value ([4]; i.t. 20 μM, initiation stage (2 days after injury), n = 8 mice/group) read?
Answer: did not significantly change PWT

Question: With “DAT C3 peptide, N-alkylated, R drawn (cyclohexylmethyl)” as the molecule, how does the Ki [3] read?
Answer: 6.82 µM

Question: For PEG12‐(HWLKV)2 (peptide), which fold increase in affinity over C5 [2] is on record?
Answer: > 10 fold

Question: For CC(C)C[C@H](NC(=O)[C@H](Cc1c[nH]c2ccccc12)NC(=O)[C@H](Cc1c[nH]cn1)NC(=O)[C@H](CCCNC(=N)N)NC(=O)[C@H](CC(C)C)NC(=O)[C@@H](NC(=O)[C@H](Cc1ccccc1)NC(=O)[C@H](CCC(N)=O)NC(=O)[C@H](CCCNC(=N)N)NC(=O)[C@@H](NC(=O)[C@@H](N)CCC(=O)O)C(C)C)[C@@H](C)O)C(=O)N[C@@H](CCCCN)C(=O)N[C@H](C(=O)O)C(C)C [DAT C13] (H-EVRQFTLRHWLKV-OH), which Ki (PICK1 [5]) is on record?
Answer: 1 µM

Question: Which Ki [2] does the source give for P28‐(C5)2 (peptide) here?
Answer: 0.593 µM

Question: For CC(C)C[C@H](NC(=O)[C@H](Cc1c[nH]c2ccccc12)NC(=O)[C@H](Cc1cnc[nH]1)NC(=O)[C@H](CCCNC(=N)N)NC(=O)[C@H](CCCNC(=N)N)NC(=O)[C@H](CCCNC(=N)N)NC(=O)[C@H](CCC(N)=O)NC(=O)[C@H](CCCNC(=N)N)NC(=O)[C@H](CCCNC(=N)N)NC(=O)[C@H](CCCCN)NC(=O)[C@H](CCCCN)NC(=O)[C@H](CCCNC(=N)N)NC(=O)CNC(=O)[C@@H](N)Cc1ccc(O)cc1)C(=O)N[C@@H](CCCCN)C(=O)N[C@H](C(=O)O)C(C)C [Tat-C5], which remaining at 24 h, 50 μM (Plasma stability) is on record?
Answer: ~5%

Question: Which Kd [6] does the source give for “PICK1 (protein interacting with C kinase 1), purified recombinant rat (from UniProt Q9EP80 1-416) (natural protein)” here?
Answer: 0.44 µM

Question: What about the Kd [7] of the same molecule?
Answer: 1.53 µM

Question: Which Ki [3] does the source give for DAT C3 peptide, N-alkylated, R = CH3 here?
Answer: 9.38 µM

Question: With Tat‐P4‐(C5)2 (peptide) as the molecule, how does the Ki [8] read?
Answer: 0.0062 µM

Question: And the fold affinity gain over C5 [8]?
Answer: > 300 fold

Question: What about the Ki [9] of the same molecule?
Answer: 0.0017 µM

Question: And the stoichiometry N (Tat‐P4‐(C5)2 per PICK1) [10]?
Answer: 0.25

Question: For PEG0‐(HWLKV)2 (peptide), which fold increase in affinity over C5 [2] is on record?
Answer: > 10 fold

Question: For PICK1 PDZ (from UniProt Q9NRD5), which Ki [11] is on record?
Answer: 1 µM

Question: For CC(C)C[C@H](NC(=O)[C@H](Cc1c[nH]c2ccccc12)NC(=O)[C@H](Cc1c[nH]cn1)NC(=O)CCOCCOCCN(CCOCCOCCC(=O)N[C@@H](Cc1c[nH]cn1)C(=O)N[C@@H](Cc1c[nH]c2ccccc12)C(=O)N[C@@H](CC(C)C)C(=O)N[C@@H](CCCCN)C(=O)N[C@H](C(=O)O)C(C)C)C(=O)[C@H](CCCNC(=N)N)NC(=O)[C@H](CCCNC(=N)N)NC(=O)[C@H](CCCNC(=N)N)NC(=O)[C@H](CCC(N)=O)NC(=O)[C@H](CCCNC(=N)N)NC(=O)[C@H](CCCNC(=N)N)NC(=O)[C@H](CCCCN)NC(=O)[C@H](CCCCN)NC(=O)[C@H](CCCNC(=N)N)NC(=O)CNC(=O)[C@H](Cc1ccc(O)cc1)NC(=O)c1ccc2c(c1)C(=O)OC21c2ccc(N(C)C)cc2Oc2cc(N(C)C)ccc21)C(=O)N[C@@H](CCCCN)C(=O)N[C@H](C(=O)O)C(C)C [TMR-Tat-P4-(C5)2], which “membrane penetration / labeling of neurons” value (hippocampal neurons) is on record?
Answer: labeled neurons

Question: And the “affinity from saturation binding curves” value (PICK1 [12])?
Answer: low nanomolar affinity

Question: What about the “time of maximal accumulation in cells” value ([1]; SNI mice, time points 0, 30, 60, 120 min) of the same molecule?
Answer: 60 min

Question: What about the “cell type of peptide signal in gray matter” value ([1]; SNI mice, NeuN and GFAP staining) of the same molecule?
Answer: exclusively confined toward neurons

Question: And the “presence in spinal cord after i.t. injection” value [1]?
Answer: clearly visible in both the ventral and dorsal parts of the spinal cord

Question: With NCC1(CC(=O)O)CCCCC1 [gabapentin] as the molecule, how does the “efficacy 14 days after nerve injury” value ([4]; i.p. 30 mg/kg, chronic phase, n = 4 per gender) read?
Answer: comparable efficacy

Question: And the ipsilateral paw threshold ([4]; i.p. 30 mg/kg, initiation stage (2 days after injury), at 1, 2, 3 h, n = 4 mice)?
Answer: full recovery

B1: DAT C4 peptide, N-alkylated, R = (CH2)2CH3 (peptide)
peptide: {n‑propyl}-WLKV
Question: With B1 as the molecule, how does the Ki [3] read?
Answer: 46.6 µM

B2: DAT C4 peptide, no modification (peptide)
peptide: WLKV
Question: For B2, which Ki [3] is on record?
Answer: 5.69 µM

B3: DAT C4 peptide, N-alkylated, R drawn (2-naphthylethyl) (peptide)
peptide: {2‑(naphthyl)ethyl}-WLKV
modifications: not fully specified
Question: Which Ki [3] does the source give for B3 here?
Answer: 48 µM

B4: DAT C4 peptide, N-alkylated, R drawn (2-cyclohexylethyl) (peptide)
peptide: {2‑cyclohexylethyl}-WLKV
Question: With B4 as the molecule, how does the Ki [3] read?
Answer: 31.8 µM

B5: DAT C4 peptide, N-alkylated, R drawn (benzyl) (peptide)
peptide: Bn-WLKV
Question: For B5, which Ki [3] is on record?
Answer: 24.5 µM

B6: DAT C4 peptide, N-alkylated, R = CH2CH3 (peptide)
peptide: Et-WLKV
Question: With B6 as the molecule, how does the Ki [3] read?
Answer: 30 µM

B7: DAT C4 peptide, N-alkylated, R = CH3 (peptide)
peptide: methyl-WLKV
Question: Which Ki [3] does the source give for B7 here?
Answer: 18.8 µM

B8: DAT C4 peptide, N-alkylated, R drawn (cyclohexylmethyl) (peptide)
peptide: Cyclohexylmethyl-WLKV
Question: Which Ki [3] does the source give for B8 here?
Answer: 15.1 µM

B9: DAT C4 peptide, N-alkylated, R drawn (2-phenylethyl) (peptide)
peptide: {2‑phenylethyl}-WLKV
Question: Which Ki [3] does the source give for B9 here?
Answer: 26.2 µM

B10: DAT C4 peptide, N-alkylated, R drawn (3-phenylpropyl) (peptide)
peptide: {3‑phenylpropyl}-WLKV
Question: Which Ki [3] does the source give for B10 here?
Answer: 38.6 µM

B11: DAT C4 peptide, N-alkylated, R = (CH2)3CH3 (peptide)
peptide: {n‑butyl}-WLKV
Question: Which Ki [3] does the source give for B11 here?
Answer: 45.3 µM

B12: DAT C4 peptide, N-acetylated, R = COCH3 (peptide)
peptide: Ac-WLKV
Question: For B12, which Ki [3] is on record?
Answer: 3.49 µM

Reference: paper PMC7278562, “A high‐affinity, bivalent PDZ domain inhibitor complexes PICK1 to alleviate neuropathic pain” (EMBO Molecular Medicine, 2020)
